The values below come from paper PMC10085679, “Filament assembly underpins the double-stranded DNA specificity of AIM2-like receptors”.

The labels stand for the following.
T1: AIM2FL (Homo sapiens, UniProt O14862 1-343)
T1 sequence: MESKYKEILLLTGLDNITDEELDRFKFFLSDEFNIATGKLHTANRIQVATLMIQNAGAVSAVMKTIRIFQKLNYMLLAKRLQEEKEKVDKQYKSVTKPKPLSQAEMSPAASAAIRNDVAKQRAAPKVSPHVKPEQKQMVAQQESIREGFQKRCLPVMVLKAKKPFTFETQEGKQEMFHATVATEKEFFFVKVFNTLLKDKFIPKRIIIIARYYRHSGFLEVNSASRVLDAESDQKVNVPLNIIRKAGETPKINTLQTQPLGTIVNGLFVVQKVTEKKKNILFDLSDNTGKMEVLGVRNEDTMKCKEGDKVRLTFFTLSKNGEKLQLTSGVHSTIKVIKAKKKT

T2: AIM2HIN (Homo sapiens, UniProt O14862 144-343)
T2 sequence: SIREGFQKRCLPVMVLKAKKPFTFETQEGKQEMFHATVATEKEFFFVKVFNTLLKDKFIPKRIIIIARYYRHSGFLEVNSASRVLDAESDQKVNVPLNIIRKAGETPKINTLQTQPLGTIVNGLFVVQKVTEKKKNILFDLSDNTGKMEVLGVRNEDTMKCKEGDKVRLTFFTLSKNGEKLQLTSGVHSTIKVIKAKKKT

B1: 60-bp dsRNA (dsRNA)
RNA 1: UAAGACACGAUGCGAUAAAAUCUGUUUGUAAAAUUUAUUAAGGGUACAAAUUGCCCUAGC
RNA 2: GCUAGGGCAAUUUGUACCCUUAAUAAAUUUUACAAACAGAUUUUAUCGCAUCGUGUCUUA
B2: 60-base ssDNA_T (ssDNA)
DNA: TTTCTTTCTTTCTTTCTTTCTTTCTTTCTTTCTTTCTTTCTTTCTTTCTTTCTTTCTTTC
B3: 60-base ssRNA_U (ssRNA)
RNA: UUUCUUUCUUUCUUUCUUUCUUUCUUUCUUUCUUUCUUUCUUUCUUUCUUUCUUUCUUUC
B4: 60-base ssDNA_A (ssDNA)
DNA: AAAGAAAGAAAGAAAGAAAGAAAGAAAGAAAGAAAGAAAGAAAGAAAGAAAGAAAGAAAG
B5: 60-base ssRNA_A (ssRNA)
RNA: B4 DNA
B6: 24-bp dsDNA (dsDNA)
DNA 1: TAAGACACGATGCGATAAAATCTG
DNA 2: CAGATTTTATCGCATCGTGTCTTA
B7: 24-bp DNA:RNA hybrid (DNA:RNA)
DNA: TAAGACACGATGCGATAAAATCTG
RNA: CAGAUUUUAUCGCAUCGUGUCUUA
B8: 24-bp dsRNA (dsRNA)
RNA 1: UAAGACACGAUGCGAUAAAAUCUG
RNA 2: CAGAUUUUAUCGCAUCGUGUCUUA

In the first data set the target is T3, IFI16FL (Homo sapiens, UniProt Q16666-2 1-729). As to the kind of experiment: fluorescence anisotropy; 160 mM KCl (60 mM KCl for IFI16HinAB); buffer, pH and temperature not given in the available text. The note with it: protein: recombinant; tags: C-terminal His6.
T3 sequence (Q16666 other isoform, or with tags, fused parts or gaps): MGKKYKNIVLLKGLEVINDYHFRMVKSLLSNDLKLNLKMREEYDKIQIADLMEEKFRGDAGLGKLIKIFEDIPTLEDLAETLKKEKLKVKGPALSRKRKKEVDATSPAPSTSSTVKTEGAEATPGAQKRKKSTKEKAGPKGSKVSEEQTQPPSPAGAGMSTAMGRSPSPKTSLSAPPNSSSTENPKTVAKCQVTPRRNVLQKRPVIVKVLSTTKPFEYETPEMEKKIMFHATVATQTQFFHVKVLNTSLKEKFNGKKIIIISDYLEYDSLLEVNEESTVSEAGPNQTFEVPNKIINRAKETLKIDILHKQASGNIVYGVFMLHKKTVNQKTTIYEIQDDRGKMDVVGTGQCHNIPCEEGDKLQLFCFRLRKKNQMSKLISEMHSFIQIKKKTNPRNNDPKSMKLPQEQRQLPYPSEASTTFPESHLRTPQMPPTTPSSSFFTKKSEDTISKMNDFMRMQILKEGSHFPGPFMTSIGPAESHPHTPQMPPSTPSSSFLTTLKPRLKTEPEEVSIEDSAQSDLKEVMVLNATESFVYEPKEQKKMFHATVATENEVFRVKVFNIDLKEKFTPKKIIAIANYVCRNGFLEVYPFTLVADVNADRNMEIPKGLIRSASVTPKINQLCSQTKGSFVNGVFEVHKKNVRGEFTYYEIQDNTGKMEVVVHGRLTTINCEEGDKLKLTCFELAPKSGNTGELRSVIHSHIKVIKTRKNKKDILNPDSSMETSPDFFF
As for B1, the Kd stood at 85 ± 7 nM.
As to B2, the Kd came out at 22 ± 4 nM.
On the same count and under the same terms, in the case of B3 it was 78 ± 11 nM.

In another data set the target is T1, AIM2FL. Described as above. The note with it: protein: recombinant.
In the case of B1, the Kd came out at 50 ± 10 nM.
Turning to B2, the Kd stood at 320 ± 80 nM.
Still for that read-out and setting: to B3 belongs 80 ± 20 nM; to B4, 150 ± 30 nM.
On the same count and under the same terms, in the case of B5 it was 400 ± 100 nM.

The same data set, now with this note: protein: recombinant; label: FAM.
Regarding B6, the Kd was determined as 80 ± 20 nM.

In the next data set the target is T4, IFI16HinAB (Homo sapiens, UniProt Q16666-2 159-729). The data set is described as above. The note with it: protein: recombinant.
T4 sequence (Q16666 other isoform, or with tags, fused parts or gaps): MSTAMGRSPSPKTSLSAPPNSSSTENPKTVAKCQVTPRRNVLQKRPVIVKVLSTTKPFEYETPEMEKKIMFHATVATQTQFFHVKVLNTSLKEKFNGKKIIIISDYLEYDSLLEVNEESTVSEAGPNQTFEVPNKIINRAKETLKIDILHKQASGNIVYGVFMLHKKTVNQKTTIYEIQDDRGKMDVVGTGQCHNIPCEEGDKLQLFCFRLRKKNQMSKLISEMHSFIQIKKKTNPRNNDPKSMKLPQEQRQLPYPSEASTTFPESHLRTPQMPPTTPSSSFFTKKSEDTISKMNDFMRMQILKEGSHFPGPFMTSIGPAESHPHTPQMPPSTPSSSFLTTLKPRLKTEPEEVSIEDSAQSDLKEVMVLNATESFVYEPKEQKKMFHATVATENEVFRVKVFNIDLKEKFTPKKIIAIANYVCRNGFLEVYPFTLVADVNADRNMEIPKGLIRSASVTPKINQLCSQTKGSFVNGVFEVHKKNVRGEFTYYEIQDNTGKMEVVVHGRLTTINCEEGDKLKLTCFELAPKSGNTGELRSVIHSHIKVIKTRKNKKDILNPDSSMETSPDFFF
As to B1, the Kd was found to be 30 ± 10 nM.
On the same count and under the same terms, to B2 belongs 70 ± 20 nM.
On the same count and under the same terms, to B3 belongs 30 ± 10 nM.

The next data set concerns the target T2, AIM2HIN. Described as above. The note with it: protein: recombinant.
For the molecule B1, the Kd worked out at 1100 ± 200 nM.
In the case of B2, the Kd was 400 ± 100 nM.
The same measure, in the same setting: to B3 belongs 300 ± 100 nM; to B4, 2700 ± 100 nM.
Same read-out and setting: in the case of B5 it was 1400 ± 200 nM.

Staying with this data set, now noted: protein: recombinant; label: FAM.
Take B7: the Kd came to 900 ± 100 nM.
On the same count and under the same terms, in the case of UUUCUUUCUUUCUUUCUUUCUUUC (ssRNA) [24-base ssRNA_U] it was 210 ± 60 nM.
Take B6: the Kd was determined as 900 ± 200 nM.
The same measure, in the same setting: to TTTCTTTCTTTCTTTCTTTCTTTC (ssDNA) [24-base ssDNA_T] belongs 1200 ± 200 nM; to B8, 1200 ± 200 nM.

A further data set deals with T4, IFI16HinAB. As to the kind of experiment: EMSA; low salt; 160 mM KCl; 60 mM KCl for IFI16HinAB; FAM probe 3-6 nM (FA) or 20 nM (EMSA); binding buffer pH and temperature not in the material. Particulars: protein: recombinant; label: FAM.
Regarding AAAGAAAGAAAGAAAGAAAGAAAG (ssRNA) [24-base ssRNA_A], the Kd is around 500 nM.
Still for that read-out and setting: in the case of UUUCUUUCUUUCUUUCUUUCUUUC (ssRNA) [24-base ssRNA_U] it was around 500 nM.

For the next data set, the target named is T3, IFI16FL. As to the kind of experiment: fluorescence anisotropy; 160 mM KCl; 60 mM KCl for IFI16HinAB; FAM probe 3-6 nM (FA) or 20 nM (EMSA); binding buffer pH and temperature not in the material. Particulars: protein: recombinant; tags: C-terminal His6.
As for B1, the Kd came out at 85 ± 7 nM.
Still for that read-out and setting: to B2 belongs 22 ± 4 nM; to B3, 78 ± 11 nM; to B4, 150 ± 20 nM.

The target in the next data set is T1, AIM2FL. The data set is described as above. Particulars: protein: recombinant.
For the molecule B1, the Kd was found to be 50 ± 10 nM.
On the same count and under the same terms, to B2 belongs 320 ± 80 nM.
On the same count and under the same terms, to B3 belongs 80 ± 20 nM; to B4, 150 ± 30 nM; to B5, 400 ± 100 nM.

A further data set deals with T2, AIM2HIN. Described as above. Particulars: protein: recombinant.
Take B4: the Kd worked out at 2700 ± 100 nM.

Still in this data set, the particulars now being: protein: recombinant; label: FAM.
Take AAAGAAAGAAAGAAAGAAAGAAAG (ssDNA) [24-base ssDNA_A]: the Kd came out at 5700 ± 700 nM.

For the next data set, the target named is T4, IFI16HinAB. As to the kind of experiment: EMSA; apparent KD >=1 uM; low salt; 160 mM KCl; 60 mM KCl for IFI16HinAB; FAM probe 3-6 nM (FA) or 20 nM (EMSA); binding buffer pH and temperature not in the material. The note with it: protein: recombinant; label: FAM.
For AAAGAAAGAAAGAAAGAAAGAAAG (ssDNA) [24-base ssDNA_A], the Kd is above 1000 nM.
Still for that read-out and setting: to TTTCTTTCTTTCTTTCTTTCTTTC (ssDNA) [24-base ssDNA_T] belongs above 1000 nM; to B8, above 1000 nM.

The target of a further data set is T4, IFI16HinAB. Description: fluorescence anisotropy; 60 mM KCl; 160 mM KCl; 60 mM KCl for IFI16HinAB; FAM probe 3-6 nM (FA) or 20 nM (EMSA); binding buffer pH and temperature not in the material. Particulars: protein: recombinant.
For B4, the Kd worked out at 500 ± 200 nM.

The next data set addresses T4, IFI16HinAB. Description: EMSA; apparent KD <=250 nM; low salt; 160 mM KCl; 60 mM KCl for IFI16HinAB; FAM probe 3-6 nM (FA) or 20 nM (EMSA); binding buffer pH and temperature not in the material. Particulars: protein: recombinant; label: FAM.
Take B7: the Kd is below 250 nM.
The same measure, in the same setting: to B6 belongs below 250 nM.

In a further data set the target is T1, AIM2FL. As to the kind of experiment: competition fluorescence anisotropy; unlabelled competitor against 6 nM 60-bp FAM-dsDNA, 60 nM protein; 160 mM KCl (60 mM KCl for IFI16HinAB); buffer, pH and temperature not given in the available text. Particulars: protein: recombinant.
With B5, the IC50 was 1020 ± 130 nM.

In a further data set the target is T1, AIM2FL. As to the kind of experiment: competition fluorescence anisotropy; unlabelled competitor against 6 nM 24-bp FAM-dsDNA, 100 nM protein; 160 mM KCl (60 mM KCl for IFI16HinAB); buffer, pH and temperature not given in the available text. Particulars: protein: recombinant.
Turning to B1, the IC50 was found to be 69.7 ± 6.7 nM.
The same measure, in the same setting: to B2 belongs 165 ± 7.3 nM; to B3, 273 ± 171 nM; to B4, 58.9 ± 6.7 nM.
With B5, the IC50 is 46.1 ± 2.7 nM.

In the next data set the target is T3, IFI16FL. Description: competition fluorescence anisotropy; unlabelled competitor against 6 nM 24-bp FAM-dsDNA, 500 nM protein; 160 mM KCl (60 mM KCl for IFI16HinAB); buffer, pH and temperature not given in the available text. Particulars: protein: recombinant; tags: C-terminal His6.
Turning to B1, the IC50 came out at 490 ± 40.3 nM.
The same measure, in the same setting: to B2 belongs 644 ± 133 nM; to B3, 305 ± 48.5 nM.

For the next data set, the target named is T2, AIM2HIN. As to the kind of experiment: competition fluorescence anisotropy; unlabelled competitor against 6 nM 24-bp FAM-dsDNA, 625 nM protein; 160 mM KCl (60 mM KCl for IFI16HinAB); buffer, pH and temperature not given in the available text. The note with it: protein: recombinant.
With B1, the IC50 was determined as 92.9 ± 2.8 nM.
Same read-out and setting: to B2 belongs 113 ± 7.3 nM; to B3, 219 ± 33.5 nM.
Same read-out and setting: to B4 belongs 134 ± 16.6 nM; to B5, 132.8 ± 0.4 nM.

The target in another data set is T3, IFI16FL. Description: competition fluorescence anisotropy; unlabelled competitor against 6 nM 60-bp FAM-dsDNA, 100 nM protein; 160 mM KCl (60 mM KCl for IFI16HinAB); buffer, pH and temperature not given in the available text. Particulars: protein: recombinant; tags: C-terminal His6.
In the case of B1, the IC50 amounted to 1070 ± 132 nM.
On the same count and under the same terms, to B3 belongs 1120 ± 75.5 nM.
Same read-out and setting: in the case of B5 it was 166 ± 18 nM.

A further data set deals with T4, IFI16HinAB. Description: competition fluorescence anisotropy; unlabelled competitor against 6 nM 60-bp FAM-dsDNA, 400 nM protein; 160 mM KCl (60 mM KCl for IFI16HinAB); buffer, pH and temperature not given in the available text. The note with it: protein: recombinant.
Take B1: the IC50 turned out to be 1430 ± 366 nM.
The same measure, in the same setting: in the case of B2 it was 1390 ± 137 nM; in that of B4, 3010 nM; in that of B5, 1970 ± 90 nM.

The target of the next data set is T2, AIM2HIN. The data set is described as above. Particulars: protein: recombinant.
As for B1, the IC50 stood at 281 ± 53.1 nM.
With B2, the IC50 came to 1000 ± 259 nM.
Same read-out and setting: in the case of B3 it was 741 ± 70.3 nM; in that of B5, 1230 ± 483 nM.

A further data set concerns the target T4, IFI16HinAB. As to the kind of experiment: competition fluorescence anisotropy; unlabelled competitor against 6 nM 24-bp FAM-dsDNA, 1000 nM protein; 160 mM KCl (60 mM KCl for IFI16HinAB); buffer, pH and temperature not given in the available text. The note with it: protein: recombinant.
As for B1, the IC50 was found to be 1130 ± 61.7 nM.
Same read-out and setting: to B2 belongs 828 ± 155 nM.
The same measure, in the same setting: to B3 belongs 733 ± 48.5 nM.
